One molecule from patent publication US20150266956A1 (UNIVERSITY OF ROCHESTER, published 2015) can be followed below.

This assay addresses T1, murine DC-STAMP (dendritic cell-specific transmembrane protein) (mouse, UniProt Q7TNJ0 1-470).
T1 construct: whole, on cells; Endogenous protein; In the immunoprecipitation and immunoblot it came from cell lysates (about 50 kDa reduced, about 100 kDa non-reduced); also called mouse DC-STAMP
T1 sequence (looked up): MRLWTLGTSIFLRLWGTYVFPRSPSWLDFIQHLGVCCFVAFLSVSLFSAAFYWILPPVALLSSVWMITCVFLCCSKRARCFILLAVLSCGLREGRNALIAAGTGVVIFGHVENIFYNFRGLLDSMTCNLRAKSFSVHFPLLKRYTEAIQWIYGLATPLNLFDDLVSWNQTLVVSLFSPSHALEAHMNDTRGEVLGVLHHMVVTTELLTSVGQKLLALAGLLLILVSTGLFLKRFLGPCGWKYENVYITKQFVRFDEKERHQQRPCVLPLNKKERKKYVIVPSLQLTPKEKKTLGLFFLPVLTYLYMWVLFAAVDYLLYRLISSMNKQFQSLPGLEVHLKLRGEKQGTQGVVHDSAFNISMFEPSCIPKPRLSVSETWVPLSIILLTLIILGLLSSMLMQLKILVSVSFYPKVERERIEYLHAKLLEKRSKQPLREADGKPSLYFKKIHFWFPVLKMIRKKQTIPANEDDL
As to the kind of experiment: immunoprecipitation and immunoblot of RANKL-treated CD11b+ RAW 264.7 cell lysate (FIG. 1A). As for the experimental part: After immunoprecipitation with the 1A2 mAb, immunoblotting was performed with either the 1A2 mAb, the KR104 rabbit polyclonal antibody (positive control), or an anti-mouse IgG antibody (negative control) under non-reducing (nr: −β-mercaptoethanol) or reducing (r: +β-mercaptoethanol) conditions. M: protein marker, black and white scanned overlay. Blot is representative of 4 separate trials. […] Numbers below bands represent densitometry values used as a semiquantitative measure of relative protein level. Blot is representative of 2 separate trials.
To study surface protein expression, a mAb was generated against a peptide in the fourth extracellular domain of DC-STAMP. For comparison, a polyclonal DC-STAMP antibody was used that has histologically shown surface expression on OC (Kukita et al., J. Exp. Med. 200:941-6 (2004)). CD11b+ cells were cultured for 2 days with RANKL and extracted membrane fraction proteins for immunoprecipitation with the 1A2 mAb. […] Both antibodies also recognize a protein at double the molecular weight (˜100 kDa) under non-reducing (nr) conditions. In both reducing and non-reducing conditions, the 1A2 DC-STAMP mAb has a more intense band for the same amount of protein loaded in each lane. […] The 1A2 mAb clone was conjugated to FITC and used to determine if surface membrane DC-STAMP on CD11b+ cells could be detected by flow cytometry.
In general terms: A western blot detects proteins with antibodies after separation by electrophoresis.

B1: DC-STAMP monoclonal antibody 1A2 (antibody, V domains shown)
VH: QVTLKESGPGILQPSQTLSLTCSFSGFSLSTFGMGVGWIRQPSGKGLEWLAHIWWDDDKYYSPALKSRLTISKDTSKNQVFLKIANVDTADTATYYCVRIGSRSPFAYWGPGTLVTVSS
VL: DIVMTQAAFSNPVTLGTSASISCRSSKSLLHSNGITYLYWYLQKPGQSPQVLIYQMSNLASGVPDRFSSSGSGTDFTLRISRVEAEDVGVYYCAQNLELPWTFGGGTKLEIKR
notes: The antibody was FITC-conjugated for flow cytometry and immunofluorescence; also called 1A2 mAb; clone 1A2
With B1, the binding result was “binds”.
